# Source: paper PMC10530652 (BME Frontiers, 2021)
# Assays:
# Crl:WI(Han) rats = assay: Single intratracheal administration toxicity study of FIB One; assay type: in vivo; conditions: 100 µg/animal (500 µg/mL)
# Protocol: Assessment of toxicity of FIB One was based on clinical signs, body weight, food consumption and clinical and anatomic pathology evaluations. Complete necropsies were performed on all animals with a recording of macroscopic abnormalities for all tissues. Organ weights and microscopic examinations were conducted as indicated.
# [1] = Stability study of FIB One aqueous formulation (HPLC); assay type: physicochemical; conditions: for Conc. / pH: aqueous formulation; for Conc. / ∆% / Total imp. RRT(%): HPLC; for ∆%: change of conc.
# patients = assay: Clinical observations in patients after procedure; assay type: in vivo, human
# Excerpt: Table S2: Clinical observations.
# [2] = fridge 2-8 °C, 1m, 1st of 2 vials
# [3] = fridge 2-8 °C, 1m, 2nd of 2 vials
# [4] = fridge 2-8 °C, 3m, 1st of 2 vials
# [5] = fridge 2-8 °C, 3m, 2nd of 2 vials
# [6] = fridge 2-8 °C, 6m, 1st of 2 vials
# [7] = fridge 2-8 °C, 6m, 2nd of 2 vials
# [8] = fridge 2-8 °C, 9m, 1st of 2 vials
# [9] = fridge 2-8 °C, 9m, 2nd of 2 vials
# [10] = fridge 2-8 °C, 10m, 1st of 2 vials
# [11] = fridge 2-8 °C, 10m, 2nd of 2 vials
# [12] = fridge 2-8 °C, 12m, 1st of 2 vials
# [13] = fridge 2-8 °C, 12m, 2nd of 2 vials
# [14] = fridge 2-8 °C, 21m, 1st of 2 vials
# [15] = fridge 2-8 °C, 21m, 2nd of 2 vials
# [16] = fridge 2-8 °C, 24m, 1st of 2 vials
# [17] = fridge 2-8 °C, 24m, 2nd of 2 vials
# [18] = fridge 2-8 °C, 24h, 1st of 2 vials
# [19] = fridge 2-8 °C, 24h, 2nd of 2 vials
# [20] = fridge 2-8 °C, 14d, 1st of 2 vials
# [21] = fridge 2-8 °C, 14d, 2nd of 2 vials
substance,measurement,setting,value
(Pro-Phe-Gly-Nle-Lys-βAla)3 [FIB One],"deaths, clinical signs, body weight, food consumption, clinical or anatomic pathology",Crl:WI(Han) rats,"no deaths, no adverse clinical signs and no effects of treatment"
same,degradation in aqueous formulation of the drug product (HPLC traces),"[1]; after 24 months, stored at 2-8°C",no degradation
same,Conc.,[1]; [2],80.16 µg per 5mL
same,Conc.,[1]; [3],77.20 µg per 5mL
same,Conc.,[1]; [4],78.87 µg per 5mL
same,Conc.,[1]; [5],72.63 µg per 5mL
same,Conc.,[1]; [6],64.94 µg per 5mL
same,Conc.,[1]; [7],72.74 µg per 5mL
same,Conc.,[1]; [8],70.54 µg per 5mL
same,Conc.,[1]; [9],66.27 µg per 5mL
same,Conc.,[1]; [10],62.55 µg per 5mL
same,Conc.,[1]; [11],67.69 µg per 5mL
same,pH,[1]; [12],7.5
same,pH,[1]; [13],7.5
same,Conc.,[1]; [12],60.40 µg per 5mL
same,Conc.,[1]; [13],57.67 µg per 5mL
same,pH,[1]; [14],7.5
same,pH,[1]; [15],7.5
same,Conc.,[1]; [14],65.38 µg per 5mL
same,Conc.,[1]; [15],59.62 µg per 5mL
same,pH,[1]; [16],7.5
same,pH,[1]; [17],7.5
same,Conc.,[1]; [16],58.4 µg per 5mL
same,Conc.,[1]; [17],58.4 µg per 5mL
same,Conc.,[1]; [18],81.63 µg per 5mL
same,Conc.,[1]; [19],82.28 µg per 5mL
same,Conc.,[1]; [20],76.85 µg per 5mL
same,Conc.,[1]; [21],84.60 µg per 5mL
same,pH,[1]; timepoint 0,7.5
same,∆%,[1]; [2],-10.9%
same,∆%,[1]; [3],-14.2%
same,∆%,[1]; [4],-12.4%
same,∆%,[1]; [5],-19.3%
same,∆%,[1]; [6],-27.8%
same,∆%,[1]; [7],-19.2%
same,∆%,[1]; [8],-21.6%
same,∆%,[1]; [9],-26.4%
same,∆%,[1]; [10],-30.5%
same,∆%,[1]; [11],-24.8%
same,∆%,[1]; [12],-32.9%
same,∆%,[1]; [13],-35.9%
same,∆%,[1]; [14],-27.3%
same,∆%,[1]; [15],-33.8%
same,∆%,[1]; [16],-35.1%
same,∆%,[1]; [17],-35.1%
same,∆%,[1]; [18],-9.3%
same,∆%,[1]; [19],-8.6%
same,∆%,[1]; [20],-14.6%
same,∆%,[1]; [21],-6.1%
same,Total imp. RRT(%),[1]; [2],ND/NQ ND/NQ
same,Total imp. RRT(%),[1]; [3],ND/NQ ND/NQ
same,Total imp. RRT(%),[1]; [4],ND/NQ ND/NQ
same,Total imp. RRT(%),[1]; [5],ND/NQ ND/NQ
same,Total imp. RRT(%),[1]; [6],ND/NQ ND/NQ
same,Total imp. RRT(%),[1]; [7],ND/NQ ND/NQ
same,Total imp. RRT(%),[1]; [8],ND/NQ ND/NQ
same,Total imp. RRT(%),[1]; [9],ND/NQ ND/NQ
same,Total imp. RRT(%),[1]; [10],ND/NQ ND/NQ
same,Total imp. RRT(%),[1]; [11],ND/NQ ND/NQ
same,Total imp. RRT(%),[1]; [12],ND/NQ ND/NQ
same,Total imp. RRT(%),[1]; [13],ND/NQ ND/NQ
same,Total imp. RRT(%),[1]; [14],ND/NQ ND/NQ
same,Total imp. RRT(%),[1]; [15],ND/NQ ND/NQ
same,Total imp. RRT(%),[1]; [16],ND/NQ ND/NQ
same,Total imp. RRT(%),[1]; [17],ND/NQ ND/NQ
same,Total imp. RRT(%),[1]; [18],ND/NQ ND/NQ
same,Total imp. RRT(%),[1]; [19],ND/NQ ND/NQ
same,Total imp. RRT(%),[1]; [20],ND/NQ ND/NQ
same,Total imp. RRT(%),[1]; [21],ND/NQ ND/NQ
same,Respiratory Rate,"patients; Hour 1, mean (s.d.), baseline 16 (1)",16 (2) bpm
same,Temperature,"patients; Hour 1, mean (s.d.), baseline 36.6 (0.5)",36.4 (0.4) C
same,Heart Rate,"patients; Hour 1, mean (s.d.), baseline 76 (13)",69 (13) bpm
same,Oxygen Saturations,"patients; Hour 1, mean (s.d.), baseline 96 (1)",97 (2) %
same,Systolic BP,"patients; Hour 1, mean (s.d.), baseline 142 (22)",124 (20) mmHg
same,Heart Rate,"patients; Hour 2, mean (s.d.)",67 (18) bpm
same,Oxygen Saturations,"patients; Hour 2, mean (s.d.)",97 (2) %
same,Respiratory Rate,"patients; Hour 2, mean (s.d.)",17 (1) bpm
same,Systolic BP,"patients; Hour 2, mean (s.d.)",124 (18) mmHg
same,Temperature,"patients; Hour 2, mean (s.d.)",36.4 (0.6) C
same,Heart Rate,"patients; Hour 3, mean (s.d.)",71 (12) bpm
same,Oxygen Saturations,"patients; Hour 3, mean (s.d.)",96 (2) %
same,Respiratory Rate,"patients; Hour 3, mean (s.d.)",16 (1) bpm
same,Systolic BP,"patients; Hour 3, mean (s.d.)",122 (32) mmHg
same,Temperature,"patients; Hour 3, mean (s.d.)",36.5 (0.4) C
same,Heart Rate,"patients; Hour 4, mean (s.d.)",77 (14) bpm
same,Oxygen Saturations,"patients; Hour 4, mean (s.d.)",96 (2) %
same,Respiratory Rate,"patients; Hour 4, mean (s.d.)",16 (1) bpm
same,Systolic BP,"patients; Hour 4, mean (s.d.)",125 (17) mmHg
same,Temperature,"patients; Hour 4, mean (s.d.)",36.8 (0.4) C
same,clinically significant variation of clinical observations,patients; between baseline and point of discharge from study (hour 4),no clinically significant variation
